{"source": "paper PMC6707828", "about": "(Biochemistry, 2018)", "key": {"[1]": {"target": "SufS (alone) (Escherichia coli, UniProt P77444)", "conditions": "covalent (Schiff base with K226)"}, "[2]": {"target": "SufS (second binding site) (Escherichia coli) (UniProt P77444)", "assay": "ITC", "conditions": "cited from earlier work"}, "[3]": {"target": "SufS (first binding site) (Escherichia coli) (UniProt P77444)", "assay": "ITC", "conditions": "cited from earlier work"}, "[4]": {"target": "the molecule itself", "assay": "SEC"}}, "data": [{"molecule": "Cc1ncc(COP(=O)(O)O)c(C=O)c1O", "note": "[PLP]", "values": [{"measurement": "UV-Vis of PLP liberated from purified enzyme", "setting": "[1]", "value": "UV-Vis spectroscopic analysis of PLP liberated from wild-type and the variant enzymes"}]}, {"molecule": "SufE (from UniProt P76194)", "values": [{"measurement": "Kd", "setting": "[2]", "value": 300, "unit": "µM"}, {"measurement": "Kd", "setting": "[3]", "value": 4, "unit": "µM"}]}, {"molecule": "SufS E96A (enzyme, E. coli, PLP cofactor (89-97% PLP incorporation)) MIFSVDKVRADFPVLSREVNGLPLAYLDSAASAQKPSQVIDAEAEFYRHGYAAVHRGIHTLSAQATEKMENVRKRASLFINARSAEELVFVRGTTAGINLVANSWGNSNVRAGDNIIISQMEHHANIVPWQMLCARVGAELRVIPLNPDGTLQLETLPTLFDEKTRLLAITHVSNVLGTENPLAEMITLAHQHGAKVLVDGAQAVMHHPVDVQALDCDFYVFSGHKLYGPTGIGILYVKEALLQEMPPWEGGGSMIATVSLSEGTTWTKAPWRFEAGTPNTGGIIGLGAALEYVSALGLNNIAEYEQNLMHYALSQLESVPDLTLYGPQNRLGVIAFNLGKHHAYDVGSFLDNYGIAVRTGHHCAMPLMAYYNVPAMCRASLAMYNTHEEVDRLVTGLQRIHRLLG", "values": [{"measurement": "stoichiometry N", "setting": "[4]", "value": 2}]}, {"molecule": "SufS E250A (enzyme, E. coli, PLP cofactor (89-97% PLP incorporation)) MIFSVDKVRADFPVLSREVNGLPLAYLDSAASAQKPSQVIDAEAEFYRHGYAAVHRGIHTLSAQATEKMENVRKRASLFINARSAEELVFVRGTTEGINLVANSWGNSNVRAGDNIIISQMEHHANIVPWQMLCARVGAELRVIPLNPDGTLQLETLPTLFDEKTRLLAITHVSNVLGTENPLAEMITLAHQHGAKVLVDGAQAVMHHPVDVQALDCDFYVFSGHKLYGPTGIGILYVKEALLQEMPPWAGGGSMIATVSLSEGTTWTKAPWRFEAGTPNTGGIIGLGAALEYVSALGLNNIAEYEQNLMHYALSQLESVPDLTLYGPQNRLGVIAFNLGKHHAYDVGSFLDNYGIAVRTGHHCAMPLMAYYNVPAMCRASLAMYNTHEEVDRLVTGLQRIHRLLG", "values": [{"measurement": "stoichiometry N", "setting": "[4]", "value": 2}]}]}
